{
  "source": "paper PMC3156789",
  "about": "(Biochemistry, 2011)",
  "key": {"[1]": {"settings": "aqueous solution; size exclusion chromatography and sedimentation velocity; ref [24]; cited from earlier work"}, "[2]": {"target": "c-Src", "settings": "read-out: dissociation constant (KD) of the CSK/c-Src complex; surface plasmon resonance; ref [9] Levinson et al.; cited from earlier work"}, "[3]": {"system": "CHK", "format": "biochemical", "settings": "in vitro"}},
  "data": [
    {"molecule": "CHK-His6: GSGS linker and a polyhistidine tag attached to the C-terminus of the rat CHK sequence (protein, left off: … (GSGS linker and polyhistidine tag), C-terminal, kept) MPTQRWAPGTQCMTKCENSRPKPGELAFRKGDMVTILEACEDKSWYRAKHHSSGQEGLLAAAALRQREALSTDPKLSLMPWFHGKISGQEAIQQLQPPEDGLFLVRESARHPGDYVLCVSFGRDVIHYRVLHRDGHLTIDEAVCFCNLMDMVEHYTRDKGAICTKLVKPKRKQGAKSAEEELAKAGWLLDLQHLTLGAQIGEGEFGAVLQGEYLGQKVAVKNIKCDVTAQAFLDETAVMTKLQHRNLVRLLGVILHHGLYIVMEHVSKGNLVNFLRTRGRALVSTSQLLQFALHVAEGMEYLESKKLVHRDLAARNILVSEDLVAKVSDFGLAKAELRKGLDSSRLPVKWTAPEALKNGRFSSKSDVWSFGVLLWEVFSYGRAPYPKMSLKEVSEAVEKGYRMEPPDSCPGPVHTLMGSCWEAEPSRRPPFRKIVEKLGRELRSVGVAAPAGGQEAEGSAPTRSQDP", "values": [
      {"measurement": "oligomeric state", "setting": "[1]", "value": "monomeric in aqueous solution"}
    ]},
    {"molecule": "CSK: C-terminal Src kinase (protein, UniProt P41240 2-450, looked up) Tyrosine-protein kinase CSK: SAIQAAWPSGTECIAKYNFHGTAEQDLPFCKGDVLTIVAVTKDPNWYKAKNKVGREGIIPANYVQKREGVKAGTKLSLMPWFHGKITREQAERLLYPPETGLFLVRESTNYPGDYTLCVSCDGKVEHYRIMYHASKLSIDEEVYFENLMQLVEHYTSDADGLCTRLIKPKVMEGTVAAQDEFYRSGWALNMKELKLLQTIGKGEFGDVMLGDYRGNKVAVKCIKNDATAQAFLAEASVMTQLRHSNLVQLLGVIVEEKGGLYIVTEYMAKGSLVDYLRSRGRSVLGGDCLLKFSLDVCEAMEYLEGNNFVHRDLAARNVLVSEDNVAKVSDFGLTKEASSTQDTGKLPVKWTAPEALREKKFSTKSDVWSFGILLWEIYSFGRVPYPRIPLKDVVPRVEKGYKMDAPDGCPPAVYEVMKNCWHLDAAMRPSFLQLREQLEHIKTHELHL", "values": [
      {"measurement": "Kd", "setting": "[2]", "value": "4 to 64", "unit": "µM"}
    ]},
    {"molecule": "14-3-3β: recombinant 14-3-3β (protein, UniProt P31946 1-246, looked up) 14-3-3 protein beta/alpha: MTMDKSELVQKAKLAEQAERYDDMAAAMKAVTEQGHELSNEERNLLSVAYKNVVGARRSSWRVISSIEQKTERNEKKQQMGKEYREKIEAELQDICNDVLELLDKYLIPNATQPESKVFYLKMKGDYFRYLSEVASGDNKQTTVSNSQQAYQEAFEISKKEMQPTHPIRLGLALNFSVFYYEILNSPEKACSLAKTAFDEAIAELDTLNEESYKDSTLIMQLLRDNLTLWTSENQGDEGDAGEGEN", "values": [
      {"measurement": "level of CHK phosphorylation", "setting": "[3]; purified recombinant proteins", "value": "negligible level"},
      {"measurement": "direct phosphorylation by CHK", "setting": "[3]; purified recombinant proteins (SFig. 4A)", "value": "CHK could directly phosphorylate all three protein substrates in vitro"}
    ]}
  ]
}
